Drawing on paper PMC7946891, “Versatility in acyltransferase activity completes chicoric acid biosynthesis in purple coneflower” (Nature Communications, 2021), this text covers Km, kcat and kcat/Km for three proteins.

Substrate in data set [1]: O=C(O)C(O)C(O)C(=O)O
Description: purified protein, by the assay type. The conditions noted are these: pH 7.0; 16.0 °C. Set-up: Michaelis-Menten kinetics of recombinant EpHTT, product quantified by UPLC-DAD.

Substrate in data set [2]: CC(C)(COP(=O)(O)OP(=O)(O)OC[C@H]1O[C@@H](n2cnc3c(N)ncnc32)[C@H](O)[C@@H]1OP(=O)(O)O)[C@@H](O)C(=O)NCCC(=O)NCCSC(=O)/C=C/c1ccc(O)cc1
Nature of the data set: UPLC-DAD endpoint assay, Michaelis-Menten. It counts as biochemical, Echinacea purpurea. The settings on record: PBS pH 7.0, 30 °C.

Substrate in data set [3]: COc1cc(/C=C/C(=O)SCCNC(=O)CCNC(=O)[C@H](O)C(C)(C)COP(=O)(O)OP(=O)(O)OC[C@H]2O[C@@H](n3cnc4c(N)ncnc43)[C@H](O)[C@@H]2OP(=O)(O)O)ccc1O
Nature of the data set: UPLC-DAD endpoint assay, Michaelis-Menten. It counts as biochemical, Echinacea purpurea. The settings on record: PBS pH 7.0, 30 °C.

Substrate in data set [4]: CC(C)(COP(=O)(O)OP(=O)(O)OC[C@H]1O[C@@H](n2cnc3c(N)ncnc32)[C@H](O)[C@@H]1OP(=O)(O)O)[C@@H](O)C(=O)NCCC(=O)NCCSC(=O)/C=C/c1ccc(O)c(O)c1
Nature of the data set: UPLC-DAD endpoint assay, Michaelis-Menten. It counts as biochemical, Echinacea purpurea. The conditions noted are these: PBS pH 7.0, 30 °C.

Substrate in data set [5]: O=C(O)C(O)C(O)C(=O)O
Description: purified protein. The conditions noted are these: 50 μM caffeoyl CoA, PBS pH 7.0, 30 °C, pH 7.0.

Substrate in data set [6]: O=C(O)[C@]1(O)C[C@@H](O)[C@@H](O)[C@H](O)C1
Description: UPLC-DAD endpoint assay, Michaelis-Menten. The settings on record: 50 μM caffeoyl CoA, PBS pH 7.0, 30 °C. It counts as biochemical, Echinacea purpurea.

Substrate in data set [7]: O=C(/C=C/c1ccc(O)c(O)c1)O[C@@H]1O[C@H](CO)[C@@H](O)[C@H](O)[C@H]1O
Nature of the data set: purified protein. It counts as biochemical, Echinacea purpurea. The settings on record: 200 μM caftaric acid as acyl acceptor, 10 mM Na2HPO4, pH 4.0, 30 °C.

Substrate in data set [8]: O=C(/C=C/c1ccc(O)c(O)c1)O[C@@H](C(=O)O)[C@@H](O)C(=O)O
Nature of the data set: purified protein. It counts as biochemical, Echinacea purpurea. The settings on record: 200 μM chlorogenic acid as acyl donor, 10 mM Na2HPO4, pH 4.0, 30 °C.

Substrate in data set [9]: O=C(/C=C/c1ccc(O)c(O)c1)O[C@@H]1C[C@](O)(C(=O)O)C[C@@H](O)[C@H]1O
Nature of the data set: purified protein. The settings on record: 200 μM caftaric acid as acyl acceptor, 10 mM Na2HPO4, pH 4.0, 30 °C, pH 4.0.

B1: EpHTT (Echinacea purpurea) (protein)
chain: MKVVVRESTVVRPAEESPPRKLWNSSLDLTNLNGHTLVVYFYRPNGASDFFNTKLMKDTLSRMLVAFYPFAGRFKYDQHGRVETDCQGQGALFLEAESDGLIDDFGDFLPTLEYLKLIPAIDYSKGIDSFPLMVFQVTFFKCGGVSLGVGMHHHLVDGMSGLHFTNTWADMTRGLDITLPPFIDRTLLRPRDPPRPVFEHIEYQSDPTPLKVSLDETKTSFSMFKLTRNQLALLKEKAKEEGNKISYTTFEMFSAHVWKCVCKARGLPDDVETKLYLPVDGRARLQPPLPPGYFGNVIFDAAVIATAGDIKSKPIWYAAGKIHDSLARMNNDYLRSAIDYLEQHNCKKPYVDYNTNLRINSWARLPIHDADFGWGRPIFMGRTGLPSVGRVYVLPSAMDDGSLSIILGLEAEEMKVFGNLLYAI
notes: full-length CDS, N-terminal 6xHis (pDEST17), E. coli BL21(DE3), Ni-NTA purified
Usually Km stands for the substrate concentration at which the rate is half of its maximum. In general, kcat refers to the number of substrate molecules converted per active site and unit of time at saturation. By kcat/Km is commonly meant the second-order rate constant that governs catalysis at low substrate concentration. For B1, the Michaelis-Menten constant (Km) in [1] was found to be 458.600 ± 80.431 µM; in data set [2] (0.5 mM tartaric acid), 22.027 ± 3.818 µM; in data set [3] (0.5 mM tartaric acid) it was 48.010 ± 11.329 µM; in data set [4] (0.5 mM tartaric acid), 34.760 ± 6.832 µM; in data set [5], 841.967 ± 35.474 µM. Besides, the kcat in [1] was 0.176 ± 0.052 s⁻¹; in data set [2] (0.5 mM tartaric acid), 0.007 ± 0.001 s⁻¹; in [3] (0.5 mM tartaric acid), 0.122 ± 0.011 s⁻¹; in data set [4] (0.5 mM tartaric acid), 0.588 ± 0.064 s⁻¹; in [5] it was 0.685 ± 0.016 s⁻¹. Moreover, the kcat/Km in data set [1] was 390 ± 122 M⁻¹ s⁻¹.

B2: EpHQT (Echinacea purpurea) (protein)
chain: MNITITKSSLIPPSETLPGSETRLWTSNLDLVVGRIHILTVYFYRPNGSSNFFDPNAMKQALADVLVSFYPMAGRLGRDESGRVVINCNGEGALFVEAEADSCLDDFGEFTPSPELRSLTPAVDYSGDVSSYPLFFAQVTHFKCGGVSLGCGVFHTLSDGLSSLHFINTWSDVARGLSVAIPPFIDRTLLRAREPPTPTHDHVEYHPPPTMTMLNTIQKPGPLSKSSTTMLKLTLDQLNTLKAKTKTEGGPSYSTYEILAAHIWRCACKARGLPDDQLTKLYVATDGRSRLSPHLPRGYLGNVVFTATPVATSGALTSDSLQNAAKLIHTTLTQMDNEYLRSAIDYLEIQPDLSALIRGPSYFASPNLNINAWSRLPVHDADFGWGRPVFMGPAIILYEGTVYVLPSPNNDRSVSLAVCLDAKEQPLFEKYLYEF
notes: as for B1
For B2, the Km in [2] (1 mM quinic acid) stood at 70.547 ± 43.952 µM; in [3] (1 mM quinic acid), 38.623 ± 14.588 µM; in [6], 576.167 ± 72.176 µM; in data set [4] (1 mM quinic acid) it was 7.231 ± 1.577 µM. For the same protein, the kcat was 0.060 ± 0.036 s⁻¹ in data set [2] (1 mM quinic acid), 0.0007 ± 0.00009 s⁻¹ in data set [3] (1 mM quinic acid), 0.157 ± 0.007 s⁻¹ in data set [6] and 0.111 ± 0.005 s⁻¹ in data set [4] (1 mM quinic acid).

B3: EpCAS (Echinacea purpurea) (protein)
chain: ASTIVKNLPGFHGDLPCTIETGYIGVGADDEVQFFYYFVESERDPSRDPLIYYLTGGPGTTALYPFLFQIGPLSINYDNSTWEKLTLELNPYSWSKAANVLFVDLPAGTGFSYGTTYEATKSSDSISAQQGYEFLIKWLEENPRFLNNSLYIAGTSYMGIVVPVVTLEVYKGNERGDQPQLNVKGYAISSPLTDKFSDFNSRFEFAHRAALISDDIYKSAKNNCGGNYIYNAVENTECARSLQRFEECTSRINEANILDPLCDEDSQDPVCGEVGDKYLKYYGNDKEVQKALGVREGTIEEFVKTNQSIHYLINKEDQDCYSYDIFSTIIYHKSLVSRNCQALILSADHDFTFPYVGVEQWITSLNLPLESPWNPWFVNNQVAGYRLKYARNGYSLTYATVKGAGHSIALYKPRETWVILDEWLASNSYLSDS
notes: full-length cDNA, C-terminal 6xHis (pESC-His), S. cerevisiae BY4741, Ni-NTA purified; vacuolar targeting peptide Met1-His24
With B3, the Km in [7] is 121.400 ± 12.163 µM; in data set [8] it was 53.910 ± 0.613 µM; in data set [9], 83.910 ± 7.811 µM. The turnover number (kcat) worked out at 1.09e-05 ± 8.7e-07 s⁻¹ in data set [7], 0.005 ± 0.00002 s⁻¹ in [8] and 0.005 ± 0.0003 s⁻¹ in data set [9].
